According to paper PMC8913689:

Biological target: HA-metabotropic glutamate receptor 3, Q14832
Experiment: AFM single-molecule force spectroscopy (AFM-SMFS); living WTT-CHO cells transfected with 1 µg of HA-GPCR vector, basal state, 37 °C; anti-HA antibody on the AFM tip pulls the HA-receptor out of the membrane; unfolding distances fitted by a Gaussian mixture (BIC) and each population assigned to an oligomeric state by the receptor's theoretical …
Conditions: remark: other sources report otherwise

B1: HA-metabotropic glutamate receptor 3, Q14832 23-879 (receptor)
chain: LGDHNFLRREIKIEGDLVLGGLFPINEKGTGTEECGRINEDRGIQRLEAMLFAIDEINKDDYLLPGVKLGVHILDTCSRDTYALEQSLEFVRASLTKVDEAEYMCPDGSYAIQENIPLLIAGVIGGSYSSVSIQVANLLRLFQIPQISYASTSAKLSDKSRYDYFARTVPPDFYQAKAMAEILRFFNWTYVSTVASEGDYGETGIEAFEQEARLRNICIATAEKVGRSNIRKSYDSVIRELLQKPNARVVVLFMRSDDSRELIAAASRANASFTWVASDGWGAQESIIKGSEHVAYGAITLELASQPVRQFDRYFQSLNPYNNHRNPWFRDFWEQKFQCSLQNKRNHRRVCDKHLAIDSSNYEQESKIMFVVNAVYAMAHALHKMQRTLCPNTTKLCDAMKILDGKKLYKDYLLKINFTAPFNPNKDADSIVKFDTFGDGMGRYNVFNFQNVGGKYSYLKVGHWAETLSLDVNSIHWSRNSVPTSQCSDPCAPNEMKNMQPGDVCCWICIPCEPYEYLADEFTCMDCGSGQWPTADLTGCYDLPEDYIRWEDAWAIGPVTIACLGFMCTCMVVTVFIKHNNTPLVKASGRELCYILLFGVGLSYCMTFFFIAKPSPVICALRRLGLGSSFAICYSALLTKTNCIARIFDGVKNGAQRPKFISPSSQVFICLGLILVQIVMVSVWLILEAPGTRRYTLAEKRETVILKCNVKDSSMLISLTYDVILVILCTVYAFKTRKCPENFNEAKFIGFTMYTTCIIWLAFLPIFYVTSSDYRVQTTTMCISVSLSGFVVLGCLFAPKVHIILFQPQKNVVTHRLHLNRFSVSGTGTTYSQSSASTYVPTVCNGREVLDSTTSSL
- stoichiometry N: 2
